Patent US20240092898A1

Columns and labels:
CD7 on cells (human) [1] = target: CD7 on cells (human) (UniProt P09564); test: flow cytometry on cells; ratio to 7-PP-1 WT
CD7 on cells (human) [2] = target: CD7 on cells (human) (UniProt P09564); test: flow cytometry on cells; cell line and unit not stated
CD33 (human) = CD33 (human) (UniProt P20138); test: SPR
CD33 (human), sequence (P20138 18-259 limits assumed): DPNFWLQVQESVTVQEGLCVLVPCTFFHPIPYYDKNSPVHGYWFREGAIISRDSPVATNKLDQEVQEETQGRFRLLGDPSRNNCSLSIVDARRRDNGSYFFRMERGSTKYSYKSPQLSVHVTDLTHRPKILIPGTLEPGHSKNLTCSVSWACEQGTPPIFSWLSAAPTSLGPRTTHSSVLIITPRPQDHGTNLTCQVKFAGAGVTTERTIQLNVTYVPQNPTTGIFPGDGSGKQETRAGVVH

CD7 on cells (human), sequence (P09564 26-240): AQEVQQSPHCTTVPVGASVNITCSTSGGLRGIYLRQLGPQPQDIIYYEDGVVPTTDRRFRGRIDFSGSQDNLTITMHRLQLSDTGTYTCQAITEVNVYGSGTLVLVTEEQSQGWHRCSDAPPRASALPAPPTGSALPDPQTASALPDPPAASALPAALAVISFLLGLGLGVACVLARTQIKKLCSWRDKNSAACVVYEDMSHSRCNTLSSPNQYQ

B1: CD7-PP-7 (Fab, V domains shown)
VH: QVQLQESGAELVKPGASVKLSCKASGYTFTSYWMHWVKQRPGQGLEWIGKINPSNGGTNYNEKFKSKATLTVDKSSSTAYMQLSSLTSEDSAVYYCARGGVYYDLYYAALDYWGQGTTVTVSS
VL: DIELTQSPATLSVTPGDSVSLSCRASQSISNNLHWYQQKSHESPRLLIKSASQSISGIPSRFSGSGSGTDFTLSINSVETEDFGMYFCQQSNSWPYTFGGGTKLEIKR
FACS fold reduction compared to PP WT (CD7 on cells (human) [1]): 502 fold | FACS binding (CD7 on cells (human) [2]): 267

B2: CD33-PP-1-WT (Fab, from another filing, V domains shown)
VH: EVQLVQSGAEVKKPGSSVKVSCKASGYTITDSNIHWVRQAPGQSLEWIGYIYPYNGGTDYNQKFKNRATLTVDNPTNTAYMELSSLRSEDTAFYYCVNGNPWLAYWGQGTLVTVSS
VL: DIQLTQSPSTLSASVGDRVTIICRASESLDNYGIRFLTWFQQKPGKAPKLLMYAASNQGSGVPSRFSGSGSGTEFTLTISSLQPDDFATYYCQQTKEVPWSFGQGTKLEIK
Kd (CD33 (human)): 1.36 nM
